# Measurements taken from the DeepSol protein solubility set.
# Test: soluble on expression in E. coli; label from the status in PepcDB or PDB records
row,Sequence,soluble on expression in E. coli
1,MNASLYQQYVQAKAEHPGKYARDLATLMGISEAELTHSRVGHDAKRLQSDARALLAALESVGEVKAITRNTYAVHEQVGRYENQHLNGHAGLILNPRALDLRLFLNQWASAFTLTEETRHGVRHSIQFFDHQGDALHKVYVTEQTDMSAWEALLAQFIIPENPALQLEPLSTPEAVEPTADDATVDSEWRAMTDVHQFFQLLKRNNLTRQQAFRAVGDDLAYQVDNNSLTQLLHIAQQDQNEIMIFVGNRGCVQIFTGLIEKVTPHNEWINVFNQRFTLHLIETAIAESWITRKPTKDGFVTSLELFAADGTQLAQLYGQRTEGQPEQNQWREQIARLINKDIAA,not soluble
2,MNAVAPLIPCIVSGGSGTRLWPVSRESMPKPFMRLADDQSLLQKTFLRIAGLPDVARLLTVTNRDLLFRTLDDYRAVNRSGLAQDLLLEPVGRNTAPAIAAAALHVQEHFGDQAQLLILPADHLIRDEQAFAAAVAEARGLAAQGYLVTFGITPERAETGFGYIEQGAPLGNGFRVARFVEKPDQATAQSYLDSGKYLWNAGMFCFQAATVLQELERHAPEVLIAARAALADGSSLENGQCRQRELAAGAFAEAPDISVDYALMERSDKVAVVPCSIGWSDIGSWQALRELSAADENGNQVRGESVLHDVSNCYIDSPKRLVGAVGVHDLIIVDTPDALLVADAARSQDVKFVAQELKRRGHDAFRLHRTVSRPWGTYTVLEEGRRFKIKRIVVRPKASLSLQMHHHRSEHWIVVSGMALVENGEREFLLNTNESTFIPAGHSHRLSNPGIIDLVMIEVQSGEYLGEDDIVRFNDIYGRAPASDEKK,not soluble
3,MNDDTRARGGREGGLRAARDRLQPALLDRLTDDERARCTEPPDAQAIGGERLRAAVLRDLAWLLNTRNGEDGFVDWAAFAHAQASVLNYGMRPLVGKPMSGVERMSVEASIRDAIVRFEPRIAPDSVEVRSVLDAPGGAAGERRHNVLMFEIKGTLWSVPHPVEFVLRSALDLETGAMALQPAAGG,not soluble
4,MNDKKLLVAYDISSNRRRRKVARILEQCGIRINKSVFICSLRELTMDKLVEAVTSQTAKRDKVFFLPLCQHCYTAAWMSGHPTLPKSRRKRKSIVV,not soluble
5,MNEFEDLLNSVSEVNPGDVVTAEVLTVDNGQANVVIDGTGVEGVLTLRELTNDRDADINDFVKAGDTVEVLVLRQVVGKDTDTVTFLVSKKRLEARKAWDKLVGREGEVVTVKGTRAVKGGLSVEFEGLRGFIPASMIDTRFVRNTEKFVGQEFDAKIKEVDAAENRFILSRREVVEESAAAARKEVFSNIEVGSVVTGKVARLTSFGAFIDLGGVDGLVHVTELSHERNVSPKSVVTVGEEVEVKVLSIDEEAGRVSLSLKATTPGPWDGVEQKLAAGDVIEGKVKRLTDFGAFVEVLPGIDGLVHISQISHKRVENPKDVLSAGQEVTVKVLEVNSDAERVSLSMKALEERPAQAEGEKEEKRQSRPRRPRRQEKRDYELPETQTGFSMADLFGDIELLEHHHHHH,soluble
6,MNEIKCPNCGEVFTVNESQYAELLSQVRTAEFDKELHDRMKQELALAEQKAMNEQQTKLAQKDQEIAQLQSQIQNFDTEKELAKKEVEQTSHEALLAKDKEVQLLENQLATLRLEHENQLQKTLSDLEKERDQVKNQLLLQEKENELSLASVKQNYEAQLKAASEQVEFYKNFKAQQSTKAIGESLEQYAESEFNKVRSFAFPNAYFEKDNKVSSRGSKGDFIFRECDENGVEIISIMFEMKNEADGTEKKHKNADFYKELDKDRREKNCEYAVLVTMLEADNDYFNTGIVDVSHEYEKMYVVRPQFFIQLIGLLRNAALNSLKYKQELALVREQNIDITHFEEDLDAFKLAFAKNYNSASTNFGKAIDEIDKAIKRMEEVKKFLTTSENQLRLANNKLEDVSVKKLTRKNPTMKAKFEALKGE,not soluble
7,MNEINESYDTDSVREFTVSDADAGPYALAEGPDGALWFTLVHRGAVARRDPDDGRVTVHPVGDGPTVIAPGPDGALWFTEYRAHRIGRITPEGHYASFAPLTPEGGPFGITAGPDGAMWFTLSSADRVGRVTMDGEVTEHPAPGAFPSALTAGPDGALWCTLNQGNAIGRLTPDGHGTAYPLPTPGAAPVGIAAGPDGALWFTEIGAGRIGRITVTGDLTEYPLSDPAARPHAVTAGPNGALWFTEWGSGRVGRITVDGRVTSYPLSRTDCEPHGIAVHDGALWCALETGSLARIQVPA,soluble
8,MNEIYDREQMIKLLDLAKNTEMELPINLAIGLGLRISEVLGLTWDNIDFEENTITVNKITSRINGSVILKEPKTESSVRKISSPKELMSLLKEYKIKQNKNLLKSSIRNNNNLLFFNKKCEPIAEDVMSKKFKRFLEKNELPHIRFHDLRHSHVTLLINSKVPIKVISERVGHSNISTTLSVYSHVLKEMDKEASDKISESLFNANLEHHHHHH,not soluble
9,MNELVDTTEMYLRTIYDLEEEGVTPLRARIAERLDQSGPTVSQTVSRMERDGLLRVAGDRHLELTEKGRALAIAVMRKHRLAERLLVDVIGLPWEEVHAEACRWEHVMSEDVERRLVKVLNNPTTSPFGNPIPGLDELGVGPEPGADDANLVRLTELPAGSPVAVVVRQLTEHVQGDIDLITRLKDAGVVPNARVTVETTPGGGVTIVIPGHENVTLPHEMAHAVKVEKV,soluble
10,MNENQLSKRLATVGDLIPRGSRLADIGSDHAYLPVALMLENKLSFAVAGEVVEGPYQSAKTQVSKSNLTDKIIVRLANGLDAIEPEDQIDVISICGMGGTLIRDILEAGRKKNRLTGKERLVLQPNIGEPTLRRWLMANDYSIIDETIVEENRKLYEIIVAEKTEQSVSYTDQELLFGPVLIKKQGPVFTKKWQRELKQRKTVLAQLAKASGEHIEKQAKLQQDQQLIEEVLANGCER,not soluble
11,MNERGMLVDPRFDAFFKLEQIDDYKYDGADTSPSTSNGLPETSNGGRLICDVCGDVAFGKHYGINACNGCKGFFRRSVWSRRQYSCRFGGDCPVVKEHRNVCRSCRLKKCFEVGMNPDSVQNERDRNAKNGGMGGPMSSPTQSSLCKELTISNGQIKRKRLRPETVEKTTQTDGKLEINDDFDFENMQQNPTPPGLLPLKIERISTPPSDLPVPMDFSIHSAVLDIEQKVFYNCPVAVDNSINATKTPITLPFEVVFRQPHLVCNRYPMRFSNTRVLTPEDLIDGWRRHFTYYSDWCHAMDEFKALSPEDQIVLAKKKIILHGWLVHAYYSYKSGCNGICFANGAAHLPEGGHPSITEFYKECMPRYLNYVIYPMHNFQMDDAEMVLIKCIMFFSSESGLSAAGRQIVSAAREKYLSALYNYGRANKCTTSAQATLRIAKFMIMLSAITSLTHLMNEGVHVTSLFNIIEFDELIQATHKTTPPQHSPPAPMG,not soluble
12,MNFNVIICGVGGQGVVLASRLLAITAMNSGFHVNTAETLGMSQREGSVVSHLQFGENIKSSLIPEGSTDLIIGLEVSEVARNIHFLKKDGKIITNSNLILPSARSSNEKYDSEKIINFIKEKVKSTICIDFSKIAKVAGNPKSMNVSVLSAAFYTGFLPLEYEDFLKTIESEIPEKYRDINLNATKLSAETISNMLEGHNE,not soluble
13,MNFRTGQPSDAAALAAISIEVWLGTYMRKGVSAFFAEYALNEFTSTKMASLLKDPNEHVIVSENEGGIDAFIRLGQGRAAPVSGCSTLEIATLYVQPRHHRRGLGRALLEQGLAYARQASAPSVWLTTNSENAPAIAFYLEQGFEKVGTTHFNIGDQ,not soluble
14,MNGNQARNDIDEWLKTAACIKHPAGCVDQDGHSAFSDREGNLFQLAVPDAFSSLHLYGTLLELQPAVDGRVLASALAINAQKNVLRGSVIALNTENQELFVHHTVTLESLDRVALWQTLDNFVALTRELRSALRSQPVPAAKIESTHFNHLRRGF,not soluble
15,MNGSADAGPRPRKYVFITGGVVSSLGKGILTSSLGALLRARGYRVTAIKIDPYVNVDAGTMRPYEHGEVFVTADGAETDLDIGHYERFLDMDLSRGNNLTTGQVYLSVIQKERRGEYLSQTVQVIPHITDEIKERIRKVAEEQKAEIVVVEVGGTVGDIESLPFLEAIRQFRFDEGEGNTLYLHLTLVPYLETSEEFKTKPTQHSVATLRGVGIQPDILVLRSARPVPEEVRRKVALFTNVRPGHVFSSPTVEHLYEVPLLLEEQGLGRAVERALGLEAVIPNLSFWQEAVRVLKHPERTVKIAIAGKYVKMPDAYLSLLEALRHAGIKNRARVEVKWVDAESLEAADLDEAFRDVSGILVPGGFGVRGIEGKVRAAQYARERKIPYLGICLGLQIAVIEFARNVAGLKGANSTEFDPHTPHPVIDLMPEQLEVEGLGGTMRLGDWPMRIKPGTLLHRLYGKEEVLERHRHRYEVNPLYVDGLERAGLVVSATTPGMRGRGAGLVEAIELKDHPFFLGLQSHPEFKSRPMRPSPPFVGFVEAALAYQERA,soluble
16,MNHMEILSFPAGPYQTNCYVVLSEESEGRRYASVIDPGLRAKELIDQYCEENRVEVVQVLLTHGHIDHCRDAAALANGWGVALQIHRYDEFFLDKGNGMSEDSRLLFHADAMNLPDSVSYLGDGDEVELGGQRFVVRHAPGHSPGCVLFVGKDFCFSGDVLFKGSIGRTDLAHSDPHAMSNSIKSVVLGLEDSLTILPGHGPATTMRAEKASNPYLRV,not soluble
17,MNIAKLIDHTILKANTTKEDVMKVIEEAKEYKFASVCINPTWVKLAAEELAGHDVDVCTVIGFPLGASTTETKAFETKDAIAKGATEVDMVINVGALKDGDNELVEKDIYEVVQAAKGKALVKVIIETCLLTDEEKVRACELSVKAGADFVKTSTGFSTGGATAEDIALMRKTVGPNVGVKASGGVRTREDAEKMVAAGASRVGASASVAIVLNDAKGATDNY,not soluble
18,MNIILKISGKFFDEDNVDNLIVLRQSIKELADNGFRVGIVTGGGSTARRYIKLAREIGIGEAYLDLLGIWASRLNAYLVMFSLQDLAYMHVPQSLEEFIQDWSHGKVVVTGGFQPGQSTAAVAALVAEASSSKTLVVATNVDGVYEKDPRIYADVKLIPHLTTQDLRKILEGSQSVQAGTYELLDPLAIKIVERSKIRVIVMNYRKLNRIIDILKGEEVSSIIEPV,soluble
19,MNINEPSVSIIMATYNSEKFLRETLDSICCQTYGNWELIITDDSSTDNTSDILRDYSERYNNIFYSINEVNQGAAISRNKCISQAKGMYIAFIDSDDLWAHNKLEKHIHFIAEHNSAISFTSYELMNENGIPLGKYVDANIPPVLTYNDMLRKKATIGCSTVILSSKLVGEFKMPLLRTGQDYATWLLLLKKVEVAHHFPKVLTKYRVCKNSISRNKFKKAKRQWQIYREVEKLPFYESIVCFCFYAWRAVFRK,not soluble
20,MNINIVTIGKLKEKYLKQGIEEYTKRLSAYAKIDIIELPDEKAPENLSDQDMKIIKDKEGDRILSKISPDAHVIALAIEGKMKTSEELADTIDKLATYGKSKVTFVIGGSLGLSDTVMKRADEKLSFSKMTFPHQLMRLILVEQIYRAFRINRGEPYHKLEHHHHHH,soluble
21,MNIRPLHDKLIVERLEVENKSEGGIVLTSQSVKKSNRGKVVAVGLGRPLKNGDRARMEVKTGDQIIFNDGYGVKTEKVDGKEYLILSESDVLAIVE,soluble
22,MNIVEEHREKCTQCGQCLSVCPRYDDLGLLDLLYGYLEGTSEIEPDSLLSCLTCGLCADACPEALGIKMLISPARQKWVSEHGLTDRQLEHHHHHH,not soluble
23,MNIYQQLVKQKLKTITPEELVSYSREYGLPITTSQAKQILHLARTNDINVFDPEERKKWVRELAKITSPDIARKANELFLKFVQKK,not soluble
